Patent US20210380703A1 (RIGEL PHARMACEUTICALS, published 2021)

Key:
[1] = molecular target: T1, biotinylated goat anti-human kappa light chain; test: ELISA, positive control
T1 construct: positive control of the ELISA
Description: The binding of ACVR2A-specific monoclonal antibodies to human ACVR2A, mouse ACVR2A, biotinylated goat anti-human kappa light chain (positive control) and human Fc (negative control) were determined by ELISA.

[2] = molecular target: T2, human ACVR2A (human, UniProt P27037 20-135, limits assumed); test: ELISA
T2 construct: coated antigen of the initial ELISA; also called activin receptor, type II A
Summary of the method: (§1)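 mAb binding by ELISA; antigens: hu ACVR2A, mu ACVR2A; pos ctrl biotinylated goat anti-hu kappa LC; neg ctrl hu Fc.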
T2 sequence (P27037 20-135 limits assumed): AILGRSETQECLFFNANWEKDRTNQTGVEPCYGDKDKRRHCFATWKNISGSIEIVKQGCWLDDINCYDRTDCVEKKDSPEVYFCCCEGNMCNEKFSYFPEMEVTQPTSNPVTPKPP

[3] = molecular target: T3, mouse ACVR2A (mouse, UniProt P27038 20-135, limits assumed); test: ELISA
T3 construct: coated antigen of the initial ELISA
Summary of the method: as §1
T3 sequence (P27038 20-135 limits assumed): as the sequence (P27037 20-135 limits assumed) above, with K20R, V73I counted along it

[4] = molecular target: T4, biotinylated goat anti-human kappa light chain; test: ELISA; positive control
T4 construct: Positive control of the ELISA
Summary of the method: as §1

[5] = molecular target: mouse ACVR2A (mouse, UniProt P27038 20-135, limits assumed); test: ELISA
Summary of the method: as §1
Target sequence in this assay (P27038 20-135 limits assumed): as the sequence (P27037 20-135 limits assumed) above, with K20R, V73I counted along it

[6] = molecular target: human ACVR2A (human, UniProt P27037 20-135, limits assumed); test: ELISA
Summary of the method: as §1
Target sequence in this assay (P27037 20-135 limits assumed): as the sequence (P27037 20-135 limits assumed) above
Further: test concentration or dose not given here.

Binder | optical density [1] | optical density [2] | optical density [3] | optical density [4] | optical density [5] | optical density [6]
375_E10 (antibody, V domains shown, Group III) VH: EVQLLESGGGLVQPGGSLRLSCAASGFTFSSYSMNWVRQAPGKGLEWVSGINYNGGYTSYADSVKGRFTISRDNSKNTLYLQMNSLRAEDTAVYYCARGANWHDTALDYWGQGTLVTVSS VL: DIQMTQSPSSLSASVGDRVTITCRASQSILSYLNWYQQKPGKAPKLVIYAATSRASGVPSRFSGSGSGTDFTLTISSLQPEDFATYYCQQSYDNPLTFGGGTKVEIK | 3.29 OD | 3.69 OD | 3.79 OD |  |  | 
367_A10 (antibody, V domains shown, Group III) VH: EVQLLESGGGLVQPGGSLRLSCAASGFTFSSYGMNWVRQAPGKGLEWVAGINYNSGYTSYADSVKGRFTISRDNSKNTLYLQMNSLRAEDTAVYYCARGANWHDTHLDYWGQGTLVTVSS VL: DIQMTQSPSSLSASVGDRVTITCRASQSIITYVNWYQQKPGKAPKLLIYAATSLASGVPSRFSGSGSGTDFTLTISSLQPEDFATYYCQQSYDLPLTFGGGTKVEIK | 3.39 OD | 1.89 OD | 2.16 OD |  |  | 
376_G09 (antibody, V domains shown, VH/VL only) VH: EVQLLESGGGLVQPGGSLRLSCAASGFTFDSYSMNWVRQAPGKGLEWVSGINYNSGYKGYADSVKGRFTISRDNSKNTLYLQMNSLRAEDTAVYYCARSANWHDTALDYWGQGTLVTVSS VL: DIQMTQSPSSLSASVGDRVTITCRASQSISYYLNWYQQKPGKAPKLLIYAVTSRASGVPSRFSGSGSGTDFTLTISSLQPEDFATYYCQQSYDNPLTFGGGTKVEIK |  |  |  | 3.45 OD | 3.65 OD | 3.68 OD
376_H09 (antibody, V domains shown, VH/VL only) VH: EVQLLESGGGLVQPGGSLRLSCAASGFTFSDYSMNWVRQAPGKGLEWVANINYNGGYTGYADSVKGRFTISRDNSKNTLYLQMNSLRAEDTAVYYCARSANWHDTALDYWGQGTLVTVSS VL: DIQMTQSPSSLSASVGDRVTITCRASQSIITYLNWYQQKPGKAPKLVIYYVSNLPSGVPSRFSGSGSGTDFTLTISSLQPEDFATYYCQQSYDSPLTFGGGTKVEIK |  |  |  | 3.46 OD | 3.3 OD | 3.32 OD
376_H10 (antibody, V domains shown, VH/VL only) VH: EVQLLESGGGLVQPGGSLRLSCAASGFTFDSYSMNWVRQAPGKGLEWVSGINYNSGYKSYADSVKGRFTISRDNSKNTLYLQMNSLRAEDTAVYYCARSANWHDTALDYWGQGTLVTVSS VL: DIQMTQSPSSLSASVGDRVTITCRASQSILTYLNWYQQKPGKAPKLVIYAATSRHSGVPSRFSGSGSGTDFTLTISSLQPEDFATYYCQQSYDSPLTFGGGTKVEIK |  |  |  | 3.54 OD | 3.29 OD | 3.28 OD
374_F02 (antibody, V domains shown, VH/VL only) VH: EVQLLESGGGLVQPGGSLRLSCAASGFTFDSYSMNWVRQAPGKGLEWVANINYNSGYTSYADSVKGRFTISRDNSKNTLYLQMNSLRAEDTAVYYCARSANWHDTALDYWGQGTLVTVSS VL: DIQMTQSPSSLSASVGDRVTITCRASQSIVSYLNWYQQKPGKAPKLLIYAASSLQSGVPSRFSGSGSGTDFTLTISSLQPEDFATYYCQQSYELPLTFGGGTKVEIK |  |  |  | 3.16 OD | 3.59 OD | 3.56 OD
375_D04 (antibody, V domains shown, VH/VL only) VH: EVQLLESGGGLVQPGGSLRLSCAASGFTFDDSSMHWVRQAPGKGLEWVSNINYNGGYTGYADSVKGRFTISRDNSKNTLYLQMNSLRAEDTAVYYCAKSANWHDTALDYWGQGTLVTVSS VL: DIQMTQSPSSLSASVGDRVTITCRASQSILSYVNWYQQKPGKAPKLVIYAATSRASGVPSRFSGSGSGTDFTLTISSLQPEDFATYYCQQSYELPLTFGGGTKVEIK |  |  |  | 3.17 OD | 3.7 OD | 3.69 OD
376_F04 (antibody, V domains shown, VH/VL only) VH: EVQLLESGGGLVQPGGSLRLSCAASGFTFDSYSMNWVRQAPGKGLEWVSNINYNSGYTGYADSVKGRFTISRDNSKNTLYLQMNSLRAEDTAVYYCARSANWHDTALDYWGQGTLVTVSS VL: not shown |  |  |  | 3.42 OD | 3.29 OD | 3.07 OD
